# Results: the RNAGym collection of RNA variant scans (doi:10.1073/pnas.2313332121)
# Fewer inactive variants are shown than the library holds.
# B1: TPR 5TU (parent)
# chain: GGAUCUUCUCGAUCUAACAAAAAAGACAAAUCUGCCACAAAGCUUGAGAGCAUCUUCGGAUGCAGAGGCGGCAGCCUUCGGUGGCGCGAUAGCGCCAACGUUCUCAACUAUGACACGCAAAACGCGUGCUCCGUUGAAUGGAGUUUAUCAUG
# Variants of: B1
# Experiment: polymerase ribozyme fitness, log enrichment relative to wild type (log ratio); higher = more active; in vitro selection for triplet polymerase activity
# In short: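 Streptavidin-bead capture of gel-excised extended constructs, followed by RT-PCR, closed a single triplicate in vitro selection round. That round began by annealing PCR-built, transcribed mutant libraries of each subunit of a heterodimeric triplet polymerase ribozyme with a biotinylated primer, the partner subunit and triplets, then incubating them frozen at −7 °C. After Illumina sequencing of inputs and outputs, genotypes needed ≥10 input reads and ≥1 read per output. Fitness is the base-2 logarithm of genotype enrichment over wild-type enrichment, using inverse-variance-weighted replicate averages.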
row,Variant,polymerase ribozyme fitness (log ratio)
1,G50U G58A,0.88
2,C51A U55G C95U C105A G117U,≤ -4.2
3,A28C U134A,≤ -4.2
4,A19U G46A C51U A91G G124U U139A,≤ -4.2
5,A60U G86A,-2.78
6,A21C C87U,0.0419
7,A3U A40G C54U C95A C149G,≤ -4.2
8,C35G C36G G128U,≤ -4.2
9,G74A G92C,-2.84
10,C14G G94A A106C G136A,-3.64
11,G84U U127G,-3.43
12,C93U U146A,-1.46
13,A22G U31C G94C,0.086
14,A3C U4G A16G U33G C43U G92U A106G,≤ -4.2
15,U55A A60G C99G G141C,-2.6
16,A20G U55G C116U A121C,-0.705
17,A60C C76U G80C G117U C123A,≤ -4.2
18,C51U U53C C63U G74C G86C A89U A113U,≤ -4.2
19,G48C U53C G136U,-3.16
20,C35G,-3.25
21,A12U A17C A22C A142C,-2.44
22,U13A A98U U148G,≤ -4.2
23,G46U U61A G92U C96A A137G,≤ -4.2
24,U31C G34A C69G C85U U134C,-1.39

row,Variant,polymerase ribozyme fitness (log ratio)
1,C14G G46U G48A A73U U77C,≤ -4.2
2,C114U U139C,-3.63
3,G88A C116U,-4.05
4,G50A U56A G86A,-3.11
5,C38G G74C C87U,≤ -4.2
6,U82C C96A,-0.964
7,C125U,-0.476
8,A17U C96G A142U U146A,-2.11
9,C5U U7G A29C A49G G50C C76A C87U C131A G133A U145G,≤ -4.2
10,A3C G58U C76U G84A C85U G94A,-2.53
11,G84A U139G,-0.68
12,C27U C75U,-1.25
13,G58C A97U,-0.712
14,A28U C79G,≤ -4.2
15,C18G U53A U139C,≤ -4.2
16,G143C U146A,-3.65
17,C96U A122C,-0.314
18,U13G U44A G124C U144G,≤ -4.2
19,U55A C79U,-2.74
20,G81C G94A,-0.416
21,A3C C5A A52C G65U C99G G133C,≤ -4.2
22,U56A U77C,-2.93
23,U4G U6G A22C A73G G83C,≤ -4.2
24,C57A A98G C123G U145G,0.398

row,Variant,polymerase ribozyme fitness (log ratio)
1,G59A C87U,-1.42
2,U55A G92A,-2.69
3,U53A U82G G100A,≤ -4.2
4,C51G A115C A122U,-3.82
5,C5G C85A C116A,0.0205
6,G126A G140A,-3.54
7,U15C G74C G94C,-4.1
8,A12G U55C C57G C87G A121G U148A A150C,≤ -4.2
9,C38U U82A U144A C149G,≤ -4.2
10,U13G A19C A29G G50C U127C,≤ -4.2
11,A21U C95U C99U,-0.768
12,A3C A47C G59C G86A,-3.89
13,U9C C27U G84U G126U,≤ -4.2
14,C76A U82G,-1.94
15,A19C A28U C75A C85U G92U,≤ -4.2
16,U53C,-0.375
17,A40G C85G A89G,≤ -4.2
18,G58A C93A G112C,-4.12
19,G81C U102C A147G,-3.21
20,G80A G126A,-0.283
21,U44A A52C,-3.94
22,G83C G88C,≤ -4.2
23,A39C A40G A49C G80U G86U A106C A150C,≤ -4.2
24,C38G G68C C85G G126A U139G G140A C149G,≤ -4.2

row,Variant,polymerase ribozyme fitness (log ratio)
1,U13A,-0.225
2,C5U A66G C87U,≤ -4.2
3,C57G C85G,-1.95
4,A23G U144G,-1.79
5,A40C U55A A107G A142G,≤ -4.2
6,C10G A52U C72U G86U C93U C116G G124A U144C,≤ -4.2
7,A39C C87U G94U U101C A147U,≤ -4.2
8,A26C A52C C54A C114A C129G U134A,≤ -4.2
9,U101G G128U U144G,-4
10,U4G G42C C76G U90C C93G A113C,≤ -4.2
11,A29U G59A G140A,≤ -4.2
12,C85G C114G G141U,-4.17
13,A12C G84A,-0.118
14,U13G C75G,≤ -4.2
15,C76A G136A,0.971
16,C35U A39G G84C A106G A120U G152A,≤ -4.2
17,A20U G59A C93A,-4.07
18,U7A C10G C32A U33A G50C G83U A91G U102C,≤ -4.2
19,A39G C85U U101C,-2.58
20,G81U U82A G92A G152U,≤ -4.2
21,A12G A40G U44A U45A C93G A120U G141U,≤ -4.2
22,C123A C132G,-3.17
23,U13C G50U G59A U82C A121U G136A,-1.14
24,C32A G67A G83A,≤ -4.2

row,Variant,polymerase ribozyme fitness (log ratio)
1,C85U C96A C116G,-0.604
2,A60G G74A,-3.26
3,A26G A40G U55A G92A C123G C125U G126A U127C,≤ -4.2
4,U56G G141U,0.498
5,A20G A30U C63A C87U U146C,≤ -4.2
6,U55C G59A C96A,-3.02
7,G86A G141A,-0.545
8,U6G C8G,-3.65
9,C35U A91G G117U A142U,≤ -4.2
10,U33A U56A G94A,≤ -4.2
11,C75U G141C,-1.98
12,U45A A52G C63G A64U G70C A89C U101G C116A,≤ -4.2
13,A23U A29G U101C,≤ -4.2
14,A91G C123U,-2.7
15,A28U G48C C54U G74U U77A G86U A98U C103G,≤ -4.2
16,U9A C93G,≤ -4.2
17,C57G G84U,-1.79
18,C79U A91U C103G U135A,≤ -4.2
19,A22U C99G C116U,-0.689
20,G58C G126U U145G,-3.82
21,C18U A21U G42A G58C C95U C116U U145C,≤ -4.2
22,A16G G86U C132U U135G,≤ -4.2
23,G74A G141A,-2.42
24,G59A C85G C99U A120G,≤ -4.2

row,Variant,polymerase ribozyme fitness (log ratio)
1,A20C U31C A41C U55A C79A C99A C125G,≤ -4.2
2,A60G G68A U139A,≤ -4.2
3,U6A A47C G59U G81A C95G G141C,≤ -4.2
4,G25U C36U G67C C85G C87U A89U,≤ -4.2
5,A12U G92U C125U,-1.06
6,U31C C36G U56A G70C G94A C129G,-3
7,A3U A16U A17G A23C C93U A106G A122G U139G,≤ -4.2
8,A21C C75G C96G C131G,-4.13
9,C85G C118U C132U,-3.11
10,A16C A19G G34A G71A C87G U145A U146C,≤ -4.2
11,U15G G50A U53A A73U C87A A113C G140U,≤ -4.2
12,A22C C27G A66U U145C,≤ -4.2
13,C57A C93A,-2.04
14,C27U A40U G59U A107G C116A,≤ -4.2
15,U56G C72U,-0.106
16,C54A C75U C93U,-2.29
17,C8A C14G C27U G46A C76A U109G C131U G143A,≤ -4.2
18,C10U A26U G42A A47U A89C C96U A107U G112C,≤ -4.2
19,C38U A73U C93U A107U G117U,≤ -4.2
20,U6G U33C U77C G80C C85G G86A G112U A120G U151C,≤ -4.2
21,A21U A29U A66U C76A C93G,≤ -4.2
22,U31C A52C C54U U139C G143U,≤ -4.2
23,G11A G94U A150U,-0.735
24,C43A C87A A89G C93U,≤ -4.2

row,Variant,polymerase ribozyme fitness (log ratio)
1,C43A G94C G143U,≤ -4.2
2,U15G A17G C27G A39G,≤ -4.2
3,U4A G92U,-0.358
4,A19G A28G C38U A49C G58A G65A C76A C93G,≤ -4.2
5,A24G G141C G143C,≤ -4.2
6,C96G U102A U109C,≤ -4.2
7,C35U A98G C99A U101C G141A,≤ -4.2
8,U53A G84A,-2.38
9,U101G A150G,-0.649
10,A20G G117A,-0.0564
11,A52G U56G G86A C95U A142C,≤ -4.2
12,C38U C95G,-1.3
13,U15A C27G A30U G68A A89U C95G A98U,≤ -4.2
14,U53A C95A A120G,-1.57
15,C72G C99G,≤ -4.2
16,U15A U31A G83U C103G U139A,≤ -4.2
17,A19G G50C C75G C85G C103A U135C,≤ -4.2
18,A52U C76U G86C G126C G152U,≤ -4.2
19,C38G C51U,-0.547
20,C54G G83A C96U A110G C132U A142C,≤ -4.2
21,U53A U55A C95A A98G C123U G143C,-3.34
22,A26G G46A G48C C51U G71C C103U A120G C149G,≤ -4.2
23,A21U A52G A66C G128A,≤ -4.2
